Reference: US20240336696A1 (PXRADIA MAB TECHNOLOGIES, published 2024)

Target: T1, CD20 on human B-cell lines (JOK-1, Raji, Ramos) (human, UniProt P11836 1-297)
T1 sequence (looked up): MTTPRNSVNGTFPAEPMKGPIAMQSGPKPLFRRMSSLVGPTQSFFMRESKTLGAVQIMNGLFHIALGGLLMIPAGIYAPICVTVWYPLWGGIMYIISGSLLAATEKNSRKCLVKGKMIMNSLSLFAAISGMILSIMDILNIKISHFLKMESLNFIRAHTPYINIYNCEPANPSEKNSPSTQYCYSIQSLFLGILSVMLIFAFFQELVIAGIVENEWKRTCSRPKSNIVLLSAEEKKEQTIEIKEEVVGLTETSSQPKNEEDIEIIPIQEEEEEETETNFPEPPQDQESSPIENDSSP
Test: cell-based or functional assay

B1: chRituximab-HD (chimeric HD antibody identical to chRituximab except for the addition of the HD peptide rs-T15) (antibody, human IgG1, kappa)
heavy: not shown
light: QIVLSQSPAILSASPGEKVTMTCRASSSVSYIHWFQQKPGSSPKPWIYATSNLASGVPVRFSGSGSGTSYSLTISRVEAEDAATYYCQQWTSNPPTFGGGTKLEIKRTVAAPSVFIFPPSDEQLKSGTASVVCLLNNFYPREAKVQWKVDNALQSGNSQESVTEQDSKDSTYSLSSTLTLSKADYEKHKVYACEVTHQGLSSPVTKSFNRGEC
percent of apoptotic cells against chRituximab, Raji cells, 5 µg/mL: 2.5 fold
